CN113549147A

B1: 单克隆抗体6C8 (antibody, V domains shown)
VH: EVQLQQSGPELVRPGASVRISCKASGYSFTGYYMHWVKQSHVKSLEWIGRINPHNGVPNYNQNFKDKATLTVDKSSTTAYMELHSLTSEDSAVYFCVSGSSDFDYWGRGATLTVS
VL: DIQMTQSPSSLSASLGERVTLTCRASQEIGAFLGWLQQKPDGIIKRLIYAASVLDSGVPKRFSGSRSGSDYSLTISSLESEDFADYYCLQYVSFPRTFGGGTKLEIK
B2: 单克隆抗体4D6 (antibody, V domains shown)
VH: EVQLQQSGPELVKPGASVKISCKASGYSFTGYYMHWVKQSHEKSLEWVGRINPHNGVADYNQILKGKAALTVDKSSTTAYMEFHSLTSEDSAVYYCVSGSSDFDYWGQGTPLTVS
VL: DIQMTQSPSSLSASLGERVSLTCRASQEIRSFLGWLQQKPDGTIKRLIYAVSNLDSGVPKRFSGSRSGSDYSLTISSLESEDFADYYCLQYISFPRTFGGGTKLEIK
B3: 单克隆抗体2B5 (antibody, V domains shown)
VH: EVHLQQSGPELVKPGSSVKISCKASGYSFTGYYIHWVKQNHLKSLTWVGRINPHNGVADYDQILRGRAALTVDKSSTTAYLEFHSLTYEDSAVYFCVSGSNDFDYWGQGTPLTVS
VL: DIQMTQSPSSLSASLGERVSLTCRASQEIRSFLGWLQQKPDGTIKRLIYAVSNLDSGVPKRFSGSRSGSDYSLTISSLESEDFADYYCLQYISFPRTFGGGTKLEIK

What follows are binders tested against 柯萨奇A6型病毒(CVA6)病毒颗粒抗原, 毒株TW-2007-00141 (Coxsackievirus A6 (CVA6), strain TW-2007-00141) (assay: cell-based or functional assay).
For B1, the 中和效价 (最大稀释倍数 (可以抑制50%以上细胞孔病变)) was 4096. B2 was tested, and the 中和效价 (最大稀释倍数 (可以抑制50%以上细胞孔病变)) was 8192. B3 gave a 中和效价 (最大稀释倍数 (可以抑制50%以上细胞孔病变)) of 4096.
